Each block holds one binder with its values, some of them ahead of it.
Columns and labels:
[1] = target: T1, canine platelet derived growth factor receptor alpha (cPDGFRA) (dog, UniProt A0A8I3NAN8 49-553, biotinylated (sites not given) in the blocking ELISA); assay: blocking ELISA: antibody with biotinylated cPDGFRA on coated canine PDGFAA; parental IC50 divided by variant IC50; pool evaluation
T1 construct: The construct is not described; also called biotinylated-cPDGFRA

human PDGFRA = human PDGFRA (human, UniProt P16234 24-524, limits assumed); assay: binding ELISA on coated human PDGFRA; parental EC50 divided by variant EC50; pool evaluation
[2] = target: T2, cPDGFRA extracellular domain (ECD)-Fc fusion protein (dog); assay: titration binding ELISA on coated cPDGFRA-Fc; parental EC50 divided by variant EC50; pool evaluation
T2 construct: extracellular domain; also called cPDGFRA-Fc; cPDGFRA-ECD-Xa-Fc

[3] = target: T1, canine platelet derived growth factor …; assay: blocking ELISA: antibody with biotinylated cPDGFRA on coated canine PDGFAA; unit from paragraph 44
[4] = target: T2, cPDGFRA extracellular domain (ECD)-Fc …; assay: SPR, BIAcore T200, cPDGFRA-ECD-Xa-Fc immobilized, antibody injected, 25 C
Experimental: The binding kinetics of selected K9-6N6.1 variants to cPDGFRA were measured using a BIAcore T200 instrument (BIAcore, Inc., Piscataway, N.J.). Briefly, a cPDGFRA extracellular domain (ECD)-Fc fusion protein was immobilized on a sensor chip and antibody was injected at various concentrations. Sensograms were obtained at each concentration and evaluated using the BIA Evaluation 3.0 program to determine rate constants. The affinity constant (KD) was calculated from the ratio of rate constants Koff/Kon. The evaluation was performed at 25° C.

[5] = target: T2, cPDGFRA extracellular domain (ECD)-Fc …; assay: kinetic binding to PDGFRA-Fc, antibody 30 nM; method not named for Table 1
[6] = target: T2, cPDGFRA extracellular domain (ECD)-Fc …; assay: comparison of the KD values of Table 1
[7] = target: T2, cPDGFRA extracellular domain (ECD)-Fc …; assay: binding ELISA on coated cPDGFRA-Fc; unit from paragraph 44
human PDGFRA-Fc = target: T3, human PDGFRA-Fc (human, UniProt P16234 24-524, limits assumed); assay: kinetic binding to PDGFRA-Fc, antibody 30 nM; method not named for Table 1
T3 construct: also called PDGFRA-Fc (Human); not shown: Fc
T3 sequence (P16234 24-524 limits assumed): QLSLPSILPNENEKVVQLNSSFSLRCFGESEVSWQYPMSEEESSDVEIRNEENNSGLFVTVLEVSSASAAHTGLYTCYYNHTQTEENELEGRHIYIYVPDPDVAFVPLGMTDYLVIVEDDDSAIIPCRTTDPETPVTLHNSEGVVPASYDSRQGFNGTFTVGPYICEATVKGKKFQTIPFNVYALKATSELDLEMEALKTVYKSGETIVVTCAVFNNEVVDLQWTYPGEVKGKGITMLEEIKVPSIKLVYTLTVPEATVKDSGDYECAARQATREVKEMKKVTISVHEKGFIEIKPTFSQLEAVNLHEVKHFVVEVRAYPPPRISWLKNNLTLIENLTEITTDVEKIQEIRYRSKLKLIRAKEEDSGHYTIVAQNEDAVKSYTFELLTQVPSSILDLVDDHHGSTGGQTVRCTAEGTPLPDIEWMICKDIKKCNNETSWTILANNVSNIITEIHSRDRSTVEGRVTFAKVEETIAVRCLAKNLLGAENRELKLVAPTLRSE

human PDGFRA, sequence (P16234 24-524 limits assumed): as above

cPDGFRA Blocking IC50 improvement (fold) over parental K9-6N6.1 [1]: 13.4 fold
Human PDGFRA Binding EC50 improvement (fold) over parental K9-6N6.1 (human PDGFRA): 1.83 fold
cPDGFRA Binding EC50 improvement (fold) over parental K9-6N6.1 [2]: 1.43 fold
B1: K9-6N6.1 variant LC-S28A (clone 2A2) (antibody, V domains shown)
VH: QLQLQESGPGLVKPSETLSLTCTVSGGSINSSSYYWGWLRQSPGKGLEWIGSFFYTGSTYYNPSLRSRLTISVDTSKNQFSLMLSSVTAADTAVYYCARQSTYYYGSGNYYGWFDRWDQGTLVTVSS
VL: EIVLTQSPATLSLSPGERATLSCRASQAVSSYLAWYQQKPGQAPRLLIYDASNRATGIPARFSGSGSGTDFTLTISSLEPEDFAVYYCQQRSNWPPAFGQGTKVEIKR

IC50 [3]: 31.5 nM
Improvement (fold) of KD over parent K9-6N6.1 [4]: 1 fold
Kd [4]: 4.87 nM
koff [4]: 0.00247 s⁻¹
kon [4]: 508000 M⁻¹ s⁻¹
Kd [5]: 1.92 nM
koff [5]: 0.00161 s⁻¹
kon [5]: 840000 M⁻¹ s⁻¹
fold lower affinity than Olaratumab binding to human PDGFRA [6]: ~10 fold
EC50 [7]: 0.272 nM
B2: K9-6N6.1 (antibody)
heavy: QLQLQESGPGLVKPSETLSLTCTVSGGSINSSSYYWGWLRQSPGKGLEWIGSFFYTGSTYYNPSLRSRLTISVDTSKNQFSLMLSSVTAADTAVYYCARQSTYYYGSGNYYGWFDRWDQGTLVTVSSASTTAPSVFPLAPSCGSTSGSTVALACLVSGYFPEPVTVSWNSGSLTSGVHTFPSVLQSSGLYSLSSMVTVPSSRWPSETFTCNVAHPASKTKVDKPVPKRENGRVPRPPDCPKCPAPEMLGGPSVFIFPPKPKDTLLIARTPEVTCVVVDLDPEDPEVQISWFVDGKQMQTAKTQPREEQFNGTYRVVSVLPIGHQDWLKGKQFTCKVNNKALPSPIERTISKARGQAHQPSVYVLPPSREELSKNTVSLTCLIKDFFPPDIDVEWQSNGQQEPESKYRTTPPQLDEDGSYFLYSKLSVDKSRWQRGDTFICAVMHEALHNHYTQESLSHSPGK
light: EIVLTQSPATLSLSPGERATLSCRASQSVSSYLAWYQQKPGQAPRLLIYDASNRATGIPARFSGSGSGTDFTLTISSLEPEDFAVYYCQQRSNWPPAFGQGTKVEIKRNDAQPAVYLFQPSPDQLHTGSASVVCLLNSFYPKDINVKWKVDGVIQDTGIQESVTEQDKDSTYSLSSTLTMSSTEYLSHELYSCEITHKSLPSTLIKSFQRSECQRVD
notes: Olaratumab HCVR on canine IgB heavy constant region, Olaratumab LCVR on canine kappa constant region; also called parental K9-6N6.1; parent K9-6N6.1

Kd [5]: 3.44 nM
koff [5]: 0.00294 s⁻¹
kon [5]: 856000 M⁻¹ s⁻¹
Kd (human PDGFRA-Fc): 0.307 nM
koff (human PDGFRA-Fc): 0.000248 s⁻¹
kon (human PDGFRA-Fc): 808000 M⁻¹ s⁻¹
fold lower affinity than Olaratumab binding to human PDGFRA [6]: ~10 fold
B3: Olaratumab (antibody, human IgG1, kappa)
heavy: not shown
light: not shown
notes: Fully human IgG1 monoclonal antibody; also called IMC-3G3; human Olaratumab

Source: US20190300612A1 (ELANCO US, published 2019)
